Measured values published in the supplement of paper PMC9170038.

The sequences below were run on MS2 coat protein (assay: apparent KD of MS2 coat protein, switch ON state; designed switch direction (-1 OFF switch, 1 ON switch): 1; higher = weaker reporter binding). Conditions: FMN input: 0 or 200 uM; Eterna round: R93 (includes R88 designs).
In short: (§1)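 Titrations with SNAP-549-labelled MS2 coat protein ran in twofold steps from 0.7 or 1.5 nM to 3 µM, each step taking 0.8–1.5 h at the start and 10–20 min toward the end. The targets were designed RNA switches transcribed on-chip from Illumina sequencing clusters, held in 100 mM Tris-HCl pH 7.5, 80 mM KCl, 4 mM MgCl2, without or with constant ligand. Apparent KD was taken per design as the median of normalised cluster binding-curve fits.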
With “AUUAUUAUUACGCAGGAUAUCGAGGUUUUUACAUGAGGAUCACCCAUGUUUUUUUUUUUAUAUUACGAGAAGGGCGAUAUUAUUA [salish99-SS2-01]” the “apparent KD of MS2 coat protein” value was 22.9 nM.
“AAAAGACAUGAGGAUCACCCAUGUCAAAACAUAGGAGGAUAUGUCUGGAAAAAAGACUGGACAGAAGGCCUUUGUC [SS1 - 59]” was tested, and the “apparent KD of MS2 coat protein” value was 15.5 nM.

These sequences were tested on MS2 coat protein (assay: apparent KD of MS2 coat protein, switch ON state; designed switch direction (-1 OFF switch, 1 ON switch): -1; higher = weaker reporter binding). Conditions: FMN input: 0 or 200 uM; Eterna round: R93 (includes R88 designs).
In short: as §1
In the case of “AAAAAGUCAGGAUAUGCGAAGGCGUCUGAUAGACGAGGCUAGCAGAAGGGACAUGAGGAUCACCCAUGUGGAAG [Mat - Exclusion 4 - Eli mod - D89]”, the “apparent KD of MS2 coat protein” value is reported as 81.3 nM.
For “AGGAGACAUGAGGAUCACCCAUGUUAGGAUAUGAACGAAAAUAAAUAAAAAUAAAAGUUCAGAAGGAACGAAAA [66%, Wbt, 9]”, the “apparent KD of MS2 coat protein” value was 45.1 nM.
In the case of “AACAGUACAGGAUAUACAUGAGGAUCACCCAUGUGAAAAUUAAGUGGAAAACCACAAGGUAGAAGGGUACUGGA [Mat - Exclusion 3 - Eli mod - D63]”, the “apparent KD of MS2 coat protein” value is reported as 21.6 nM.
“AACAGUACAGGAUAUACAUGAGGAUCACCCAUGUGGGAAUUAAGUGGCGUACCACAAAGUAGAAGGGUACUGGA [Moding Maslow revisited (73)]” was tested, and the “apparent KD of MS2 coat protein” value was 72.5 nM.
With “AAAAAACAUGAGGAUCACCCAUGUCAGGAUAUCUGGAGAAACGGAAAGAAAAAGAAACGGAGAAGGGACAUAAA [Starryjess mod]” the “apparent KD of MS2 coat protein” value was 29.6 nM.
With “UAAAAACAUGAGGAUCACCCAUGUGAGGAUAUGUGAAAAAAAAAAAAAAAAAAAACAAGCAGAAGGCACAAAAA [JR_Exc001_Sub020]” the “apparent KD of MS2 coat protein” value was 67.6 nM.
“AAAAUGAAAGGAUAUACAUGAGGAUCACCCAUGUUCCAGAACAGGAGUACAAGCGAGUGUAGAAGGUUCAGCAA [Ercesois]” was tested, and the “apparent KD of MS2 coat protein” value was 22.3 nM.
In the case of “AAAACGGUAGGAUAUACGAUUGGGAACUAGACCGAGAAACCACAUGAGGAUCACCCAUGUAGAAGGGCCAAAAA [Ex2 Malc#13]”, the “apparent KD of MS2 coat protein” value is reported as 31.1 nM.
With “AAACCACAUGAGGAUCACCCAUGUCAGGAUAUGAACGAAAAUAAAUAAAAAUAAAAGUUCAGAAGGGACGAAAA [66%, Wbt, 15]” the “apparent KD of MS2 coat protein” value was 39.2 nM.
For “AAAAAGGUAGGAUAUACGAAAAAAAAGGGUAGAAAAAAAACACAUGAGGAUCACCCAUGUAGAAGGACCAAAAA [Ex 2 sub 1]”, the “apparent KD of MS2 coat protein” value was 26.3 nM.
In the case of “AACAAGACAGGAUAUACAUGAGGAUCACCCAUGUGAGAAUAAAGUAGCGUAACACAAAGUAGAAGGGUCAUGGA [Ruby 7]”, the “apparent KD of MS2 coat protein” value is reported as 29.7 nM.
“AAGAAAGCAGGAUAUACAUGAGGAUCACCCAUGUAAAAGAAAGAGGGAAAAGAGAAAAGUAGAAGGGCUAAGAA [Cleopatra IV]” was tested, and the “apparent KD of MS2 coat protein” value was 37.3 nM.
In the case of “ACUAUACGAGGAUAUGCUGUCAACACUAAGGAAUUCGUAUGACAUGAGGAUCACCCAUGUAGAAGGCGUAUACU [JR_Exc002_Sub510]”, the “apparent KD of MS2 coat protein” value is reported as 23.3 nM.
“GAAAAGUGAGGAUAUACAUGAGGAUCACCCAUGUGUAUAAAAAAAUACACAAAAGAAAGUAGAAGGCACUAAAA [Mat - Exclusion 3 - Mayanna mod - D111]” was tested, and the “apparent KD of MS2 coat protein” value was 25.8 nM.
In the case of “AAAAAUUGAGGAUAUACGAACAUGUCGAAAGACGUGAAGGGACAUGAGGAUCACCCAUGUAGAAGGCGAAAAAA [Mat - Exclusion 2 - JL mod - D68]”, the “apparent KD of MS2 coat protein” value is reported as 33.7 nM.
In the case of “AAGAAGUGAGGAUAUCGAAGACUGUCGAAAAGACAGUCGAACGAGAAGGCACAUGAGGAUCACCCAUGUGAGAA [Marsurpial 65% 1]”, the “apparent KD of MS2 coat protein” value is reported as 31 nM.
With “AAGAAGAUAGGAUAUACAAGAAAGAAAGAAAAGAAAAGAAAACAUGAGGAUCACCCAUGUAGAAGGAUCUAGAA [EteRNA is fun!]” the “apparent KD of MS2 coat protein” value was 30.8 nM.
For “AAGAACUGAGGAUAUACAUAAUAAAAGAAAAGAAACAAAGAACAUGAGGAUCACCCAUGUAGAAGGCGGAAGAA [Menwadjre Sihathor]”, the “apparent KD of MS2 coat protein” value was 29.4 nM.
For “ACAUGUACAGGAUAUACAUGGAAAAAAAAAAAAAAAAAACUACAUGAGGAUCACCCAUGUAGAAGGGUACAUGA [Ex2 Design 193: Random 12B]”, the “apparent KD of MS2 coat protein” value was 25.8 nM.
With “AGAAAGUCAGGAUAUGCAGAAAAAAAAACGAAAAAAAAACUGCAGAAGGGACAUGAGGAUCACCCAUGUUAAGA [Mat - Exclusion 4 - Mayanna - D130]” the “apparent KD of MS2 coat protein” value was 49 nM.
For “AGCUAGUCAGGAUAUACAAACAUGUCGAAAGACGUGAAGGGACAUGAGGAUCACCCAUGUAGAAGGGACUAGCA [Mod of Janderson's WEB Mod v.2]”, the “apparent KD of MS2 coat protein” value was 50 nM.
With “AAGAAGUCAGGAUAUGCCAGAGAUCACGAAAGUGACUAAGGGCAGAAGGGACAUGAGGAUCACCCAUGUAAAGA [Opal 5]” the “apparent KD of MS2 coat protein” value was 63.4 nM.
“GGGUGGCGAGGAUAUACAUGAGGAUCACCCAUGUGAGAGAAAAAAGUGAGAAAGAAAAGUAGAAGGCGCUGCCG [salish99-ex3-56]” was tested, and the “apparent KD of MS2 coat protein” value was 47.9 nM.
In the case of “CUCUAGUGAGGAUAUACAAGAAAAGAAAAGAAAGAAAAGAAGUAGAAGGCACAUGAGGAUCACCCAUGUAAGAA [EteRNA is fun!]”, the “apparent KD of MS2 coat protein” value is reported as 24.8 nM.
“AAGAAGUCAGGAUAUACAUGAGGAUCACCCAUGUAAAAGAAAGAAAGGGAAAAGAAAAGUAGAAGGGACAAGAA [Usermaatre-akhenamun Ramesses VIII]” was tested, and the “apparent KD of MS2 coat protein” value was 18.2 nM.
For “AAACUACUAGGAUAUGCAGAAAGGGUGUAUCCUUAAACUCCACAUGAGGAUCACCCAUGUAGAAGGAGUAAUCG [Dilaquis]”, the “apparent KD of MS2 coat protein” value was 32.4 nM.
With “AAGAACCAAGGAUAUACAUGAGGAUCACCCAUGUAAAAGAAAGAAAGGGAAAAGAAAAGUAGAAGGUGGAAGAA [Takelot I]” the “apparent KD of MS2 coat protein” value was 28.1 nM.
“AAGAAGUGAGGAUAUGCAAAAGAAAAGAAAAGAAAAGAAAAGCAGAAGGCACAUGAGGAUCACCCAUGUAAGAA [Petubastis III]” was tested, and the “apparent KD of MS2 coat protein” value was 12.8 nM.
For “AACAGCACAGGAUAUACAUGAGGAUCACCCAUGUGAGAAUUAAGUGGCGUACCACAAAGUAGAAGGGUGCUGGA [Mat - Exclusion 3 - JL mod - D39]”, the “apparent KD of MS2 coat protein” value was 35.9 nM.
“AAAAAUGGAGGAUAUACAUGAGGAUCACCCAUGUGUAACAAAACAAAACACAAAAAAAGUAGAAGGCCAAAAAA [Gilly Gone Silly 5 - Jieux - Exclusion 3]” was tested, and the “apparent KD of MS2 coat protein” value was 19.2 nM.
For “AACAGGACAGGAUAUACAUGAGGAUCACCCAUGUGAAGAUUAAGAAGAAAACCACAAAGUAGAAGGGUCCUGGA [Ruby 94]”, the “apparent KD of MS2 coat protein” value was 35.1 nM.
“CUCAAGUUAGGAUAUAGAAGAAAAGAAGAGAAAGAAAAGAACUAGAAGGAACAUGAGGAUCACCCAUGUAAGAA [EteRNA is fun!]” was tested, and the “apparent KD of MS2 coat protein” value was 31.2 nM.
With “AAAUAGCAAGGAUAUACAUGAGGAUCACCCAUGUAAGGAUGGAAAGUAAUAGAAGAAAGUAGAAGGUGCAAAUA [Ex 3 Tesla 4]” the “apparent KD of MS2 coat protein” value was 31.7 nM.
In the case of “AACGAACAUGAGGAUCACCCAUGUCAGGAUAUGCGAAGAACGAUCGAACAAACGAUAAGCAGAAGGGACAGAGA [Amethyst 98]”, the “apparent KD of MS2 coat protein” value is reported as 25.1 nM.
“AAAAAGCGAGGAUAUACAUAGCUAAGACGUGUGAGCGAAAAACAUGAGGAUCACCCAUGUAGAAGGCGCAAAAA [Exclusion2-03]” was tested, and the “apparent KD of MS2 coat protein” value was 18.2 nM.
With “AAAAGCACAGGAUAUACGGGAUUAUGACGAAAGUCAUAAAAACAUGAGGAUCACCCAUGUAGAAGGGUGCAAAA [Mod of Meechl's... 64% 2]” the “apparent KD of MS2 coat protein” value was 191 nM.
With “AAAAACGUAGGAUAUACAUGAAAAAAAAAAAAAAAAAAAAGACAUGAGGAUCACCCAUGUAGAAGGGCGAAAAA [water's exclusion 2]” the “apparent KD of MS2 coat protein” value was 91.9 nM.
In the case of “AAAUAGCAAGGAUAUACAUGAGGAUCACCCAUGUGAAAAAGGUAUGGAAUAGAAUAGAGUAGAAGGUGCAAAUA [Mod of Ex 3 Tesla 8 - Jieux - Exclusion 3]”, the “apparent KD of MS2 coat protein” value is reported as 24.9 nM.
“CUCUAGUCAGGAUAUACAAGAAAAGAAGAGAAAGAAAAGAAGUAGAAGGGACAUGAGGAUCACCCAUGUAAGAA [EteRNA is fun!]” was tested, and the “apparent KD of MS2 coat protein” value was 50.9 nM.
In the case of “GAAAAGGUAGGAUAUACGAAAAAAAAGGGUAAAAAAUAAAAACAUGAGGAUCACCCAUGUAGAAGGACCAAAAG [Mat - Exclusion 2 - Tesla mod - D40]”, the “apparent KD of MS2 coat protein” value is reported as 28.8 nM.
With “CGCAAACAUGAGGAUCACCCAUGUGAGGAUAUGUGAGCACGAGAAAGAUAAAGUGAGCACAGAAGGCACAAGCG [JR_Exclusion1_Sub6]” the “apparent KD of MS2 coat protein” value was 34.8 nM.
